Read-outs that look alike come from different tables or passages of the source.
Assays:
SARS-CoV spike (S) = SARS-CoV spike (S) (SARS-CoV, UniProt P59594 14-1195); test: SPR, VHH over immobilised S
[1] = target: T1, Human SARS-CoV-2_Wuhan S (SmT1) (SARS-CoV-2 (Wuhan), UniProt P0DTC2 14-1208); test: SPR, VHH over immobilised S
[2] = target: T1, Human SARS-CoV-2_Wuhan S (SmT1); test: SPR, VHH over immobilised S; remark: listed apart in the source
[3] = target: Human SARS-CoV-2_Wuhan S (SmT1) (SARS-CoV-2 (Wuhan), UniProt P0DTC2 14-1208); test: flow cytometry SVNA, VHH vs biotin-S binding to Vero E6 ACE2

B1: NRCoV2-MRed22 VHH (VHH)
VHH: EVQLVESGGGLVQPGGSLRLSCAASGSVFASNAMGWYRQAPGKQRELVATISSRGSTNYADSVKGRFTISRDNAKNTVYLQMNSLGPEDTAVYYCNAREFTGFDYWGQGTQVTVSS
binding result (SARS-CoV spike (S)): no binding
Kd [1]: 0.506 nM
koff [1]: 0.000176 s⁻¹
kon [1]: 347000 M⁻¹ s⁻¹
Kd [2]: 0.51 nM

B2: NRCoV2-MRed19 VHH (VHH)
VHH: EVQLVESGGGLVQPGGSLRLSCAASTIIFKGQTMGWFRQAPGNERELVATMTTSGSANYADSVKGRFTISRDNEKTVTLQMNSLKPEDTALYYCYMHSVYYGIDYWGKGTQVTVSS
Kd (SARS-CoV spike (S)): 24.6 nM
koff (SARS-CoV spike (S)): 0.00614 s⁻¹
kon (SARS-CoV spike (S)): 249000 M⁻¹ s⁻¹
Kd [1]: 9.07 nM
koff [1]: 0.00118 s⁻¹
kon [1]: 131000 M⁻¹ s⁻¹
Kd [2]: 9.07 nM

B3: NRCoV2-18 VHH (VHH)
VHH: EVQLVESGGGLVQAGGSLRLSCVASGITISGYNMAWWRQTRGKQTERVAFINSGGSTTYSDSVKGRFTISRDNGKNTAYLQMNSLNAEDTADYFCSLHTSHDYWGQGTQVTVSS
IC50 [3]: 8.9 nM
IC99 [3]: 133 nM
Imax % [3]: 51%

B4: NRCoV2-MRed20 VHH (VHH)
VHH: EVQLVESGGGSVQAGGSLRLSCAASGLSFSSYDMGWFRQAPGKEREFVAAIRESGSGTYYADSVKGRFTISRDNAKNTVYLQVSSLKPEDTAVYTCAAKPPFYGSGTYSTPRAYLYWGQGTQVTVSS
Kd (SARS-CoV spike (S)): 10.7 nM
koff (SARS-CoV spike (S)): 0.00406 s⁻¹
kon (SARS-CoV spike (S)): 380000 M⁻¹ s⁻¹
Kd [1]: 0.0918 nM
koff [1]: 1.46e-05 s⁻¹
kon [1]: 160000 M⁻¹ s⁻¹
Kd [2]: 0.092 nM

B5: NRCoV2-10 VHH (VHH)
VHH: QLQLQESGGGLVQPGGSLTLSCAASGNTFSRSNMHWYRQAPGAQREWVAAISSRGISTYAYSAKGRFTISRDNAKNTVSLQMNSLKPEDTAVYYCYAADDLGDYWGQGTQVTVSS
IC50 [3]: 16.1 nM
IC99 [3]: 121 nM
Imax % [3]: 50%

B6: NRCoV2-MRed11 VHH (VHH)
VHH: EVQLVESGGGLVQAGGSLRLSCAASGFTFSSYAMSWHRQAPGKGLEWVSAINSGGGSTSYADSVKGRFAISRDNAKNTLYLQMNSLKPEDTAVYYCATTISDGSSWSTKSYRGQGTQVTVSS
binding result (SARS-CoV spike (S)): no binding
Kd [1]: 6.2 nM
koff [1]: 0.000283 s⁻¹
kon [1]: 45700 M⁻¹ s⁻¹
Kd [2]: 6.2 nM

B7: NRCoV2-15 VHH (VHH)
VHH: EVQLVSSGGGLVEAGGSLRLSCIASGSTSGRNTMGWFRQAPGKQREWVAIVSTSGATNYAGSVKGRFTLSRDNAKNAVYLQMNNLKPEDTAVYYCYAAYGGGGDYWGQGTQVTVSS
IC50 [3]: 12.1 nM
IC99 [3]: 233 nM
Imax % [3]: 44%

B8: NRCoV2-MRed07 VHH (VHH)
VHH: EVQLVESGGGLVQPGGSLTLSCAASGSIGPFNTMGWYRQAPGNQREPAAIITRGGVTNYADSVKGRFTISRDNAKNAVYLQMDSLKPDDTAVYYCYANYGWAIPYWGNGTQVTVSS
binding result (SARS-CoV spike (S)): no binding
Kd [1]: 0.105 nM
koff [1]: 0.000481 s⁻¹
kon [1]: 4.58e+06 M⁻¹ s⁻¹
Kd [2]: 0.11 nM

B9: NRCoV2-MRed03 VHH (VHH)
VHH: EVQLVESGGGLVQPGGSLRLSCAAIGFTLDYYAIGWFRQAPGKEREGVSCISSSDGSTYYADSVKGRFTISRDNAKNTVYLQMNSLKPEDTAVYYCATDAFATCDSWYAQIAQYDFRGQGTQVTVSS
binding result (SARS-CoV spike (S)): no binding
Kd [1]: 0.508 nM
koff [1]: 0.000121 s⁻¹
kon [1]: 237000 M⁻¹ s⁻¹
Kd [2]: 0.51 nM

B10: NRCoV2-MRed25 VHH (VHH)
VHH: EVQLVESGGGLVQAGGSLRLSCAASGHTFSRYGMGWFRQAPGKEREFVAAISWRGDSTYYRDSVNGRFTISRDNAKNTVYLGMNSLKPEDTAVYYCAAEMWGTATIVASRYTYWGQGTQVTVSS
Kd (SARS-CoV spike (S)): 2.29 nM
koff (SARS-CoV spike (S)): 5.01e-05 s⁻¹
kon (SARS-CoV spike (S)): 21800 M⁻¹ s⁻¹
Kd [1]: 1.02 nM
koff [1]: 0.000115 s⁻¹
kon [1]: 112000 M⁻¹ s⁻¹
Kd [2]: 1.02 nM

B11: NRCoV2-SR16 VHH (VHH)
VHH: QVQLVQSAGGLVQAGGSLRLSCVVSGTTFSRYHMGWHRQAPGKQRDFVAGISTSGAVTYADSAKGRFTISRDNAKNTVYLEMNSLKLEDTALYYCNTGGWDYRSSTFIMGLNWGQGTQVTVSS
binding result (SARS-CoV spike (S)): no binding
Kd [1]: 1.96 nM
koff [1]: 0.000957 s⁻¹
kon [1]: 488000 M⁻¹ s⁻¹
Kd [2]: 2 nM

B12: NRCoV2-S2A4 VHH (VHH)
VHH: QVQLVQSGGGLVQAGGSLRLSCAVSGSPFRSNVMEWYRQAPGKQRELVASISTGGSRTYTDSVKGRFTISRDNAKNEAFLQMNSLKPEDTAVYYCHAAARDSHGIYLLDTWGQGTQVTVSS
binding result (SARS-CoV spike (S)): no binding
Kd [1]: 12.8 nM
koff [1]: 0.000446 s⁻¹
kon [1]: 34900 M⁻¹ s⁻¹
Kd [2]: 12.8 nM

B13: NRCoV2-SR03 VHH (VHH)
VHH: AVQLVDSGGGLVQAGGSLRLSCAASGSIFSNNHMGWYRQAPGKQRELVAAISSGGKTNYADFAKGRFTISRDNAKNMVYLQMNSLKPEDTAVYYCNRGGWEYRSSYYIMGPHWGQGTQVTVSS
binding result (SARS-CoV spike (S)): no binding
Kd [1]: 1.69 nM
koff [1]: 0.00113 s⁻¹
kon [1]: 670000 M⁻¹ s⁻¹
Kd [2]: 1.69 nM

B14: NRCoV2-14 VHH (VHH)
VHH: EVQLVSSGGGLVQAGGSLRLSCEASGTTFSHYAVGWYRQAPGKQREWVASISVFGSTTYGGSVAGRFTISRDNDKNTVDLQMNSLKPEDTAVYYCHAVNADIGGDYWGQGTQVTVSS
IC50 [3]: 21.3 nM
IC99 [3]: 17400 nM
Imax % [3]: 54%

B15: NRCoV2-S2F3 VHH (VHH)
VHH: EVQLVQSGGGLVQAGGSLRLSCATSVRILSVPAMGWYRQAPGKEREMVAVITSGGSTNYADSVKGRFTISRDNAKNTVYLQMNSLKLEDTAVYQCNLRDILSQPFWGQGTQVTVSS
Kd (SARS-CoV spike (S)): 4.91 nM
koff (SARS-CoV spike (S)): 0.00139 s⁻¹
kon (SARS-CoV spike (S)): 282000 M⁻¹ s⁻¹
Kd [1]: 3.03 nM
koff [1]: 0.000473 s⁻¹
kon [1]: 156000 M⁻¹ s⁻¹
Kd [2]: 3.03 nM

B16: NRCoV2-S2G3 VHH (VHH)
VHH: QVQLVQSGGGSVQAGGSLRLSCAASGSTFGIFLMGWRRQAPGKQRELVAHITSGGATNYADSVKGRFTISRDNAKNTVYLQMNSLEPEDTAVYYCYTTKRDDASVYWGQGTQVTVSS
Kd (SARS-CoV spike (S)): 4.27 nM
koff (SARS-CoV spike (S)): 0.0008 s⁻¹
kon (SARS-CoV spike (S)): 187000 M⁻¹ s⁻¹
Kd [1]: 1.87 nM
koff [1]: 0.000606 s⁻¹
kon [1]: 324000 M⁻¹ s⁻¹
Kd [2]: 1.87 nM

B17: NRCoV2-MRed04 VHH (VHH)
VHH: EVQLVESGGGLVQPGRSLRLSCAASGNSFSISTMGWFRQAPGKERELVASIWSDTTTSYADSVKGRFTISTDNTRTKVYLQMSSLNPEDTAVYYCAADRGFVVRGQYDYWGQGTQVTVSS
IC50 [3]: 6.1 nM
IC99 [3]: 124 nM
Imax % [3]: 53%

B18: NRCoV2-20 VHH (VHH)
VHH: EVQLQQSGGGLVQPGGSLRLSCAASGRTFSNYVVGWFRQAPQAPGKDHEFVAVISGSDTETYYADSVKGRFTISRDNAKNTVYLQMNSLKPEDTAVYYCAADRGMSYYYTRATEYYYWGQGTQVTVSS
IC50 [3]: 5.1 nM
IC99 [3]: 1370 nM
Imax % [3]: 43%

B19: NRCoV2-SR04 VHH (VHH)
VHH: QVQLVESGGGLVQAGGSLRLSCAASGRTFSSHTVGWYRQAPGKQRDLVAAISMGGNTNYADYADSVKGRFTISRDNAKNTLYLQMNSLKPEDTAVYYCNTAALVGNRLLPMATITWGQGTQVTVSS
binding result (SARS-CoV spike (S)): no binding
Kd [1]: 0.14 nM
koff [1]: 0.000515 s⁻¹
kon [1]: 3.68e+06 M⁻¹ s⁻¹
Kd [2]: 0.14 nM

B20: NRCoV2-MRed18 VHH (VHH)
VHH: EVQLVESGGGLVQPGGSLRLSCAASTTVFGRNAMGWYRQAPGKERELVATVSDGGTPNYADSVKGRFTISRDNAKNTIYLQMNSLEPEDTAVYYCNYYNYYYGRNFWGQGTQVTVSS
Kd (SARS-CoV spike (S)): 22.5 nM
koff (SARS-CoV spike (S)): 0.00677 s⁻¹
kon (SARS-CoV spike (S)): 300000 M⁻¹ s⁻¹
Kd [1]: 6.03 nM
koff [1]: 0.00119 s⁻¹
kon [1]: 197000 M⁻¹ s⁻¹
Kd [2]: 6.03 nM

B21: NRCoV2-MRed05 VHH (VHH)
VHH: EVQLVESGGGLVQPGGSLRLSCAASGFTLDYYAIGWFRQAPGKEREGVSCISSSDGSTLYADSVKGRFTISRDNAKNTVYLQMNSLKPEDTAVYYCATGPQAYYSGSYYFQCPQAGMDYWGKGTQVTVSS
IC50 [3]: 15 nM
IC99 [3]: 184 nM
Imax % [3]: 88%

B22: NRCoV2-S2G4 VHH (VHH)
VHH: QVQLVQSGGGLVQAGGSLTLSCAPSGSTFSGYATNWYRQAPGKQRELVATISSDGDKNYADSVKGRFTISRDNAKNTVYLQMNSLKPEDTAVYYCNKHWWTGDWWGQGTQVTVSS
Kd (SARS-CoV spike (S)): 0.799 nM
koff (SARS-CoV spike (S)): 0.000735 s⁻¹
kon (SARS-CoV spike (S)): 920000 M⁻¹ s⁻¹
Kd [1]: 0.232 nM
koff [1]: 0.000207 s⁻¹
kon [1]: 893000 M⁻¹ s⁻¹
Kd [2]: 0.23 nM

B23: NRCoV2-MRed06 VHH (VHH)
VHH: EVQLVESGGGLVQAGGSLRLSCAASGFTLAYYAIGWFRQAPGKEREGVSCISSSDGSAHYADSVKGRFTISRDNAKNTVSLQMNSLKPEDTAVYYCATDSFSSCSDYESGMDFWGKGTQVTVSS
binding result (SARS-CoV spike (S)): no binding
Kd [1]: 5.19 nM
koff [1]: 0.000996 s⁻¹
kon [1]: 192000 M⁻¹ s⁻¹
Kd [2]: 5.2 nM

B24: NRCoV2-05 VHH (VHH)
VHH: EVKLVQSGGGLVQPGGSLRLSCAASGFIFSNYAMNWVRQAPGKGLEWVSGINSGGGDTRYADSVKGRFTVSRDNAKNTLYLQMNSLKPEDTGVYYCSKGPVSSYYGSGYDYRGQGTQVTVSS
IC50 [3]: 9.5 nM
IC99 [3]: 14.2 nM
Imax % [3]: 97%

From patent publication US20240270826A1 (NATIONAL RESEARCH COUNCIL OF CANADA, published 2024)
